The record followed here is publication PMC11016934, “Mechanism of GTPase activation of a prokaryotic small Ras-like GTPase MglA by an asymmetrically interacting MglB dimer” (The Journal of Biological Chemistry, 2024).

Data set [1] addresses MglA-link-MglB^ΔCt with C-terminal hexahistidine tag (mglA-link-mglB^ΔCt-H6) (Myxococcus xanthus) (UniProt Q1DB03).
Data set [2] has as its target MglA-link-MglB1 with C-terminal hexahistidine tag (mglA-link-mglB-H6) (Myxococcus xanthus) (UniProt Q1DB03).
Data set [3] concerns the target MglB^ΔCt with C-terminal Strep-tag (MglB^ΔCt-Strep) (Myxococcus xanthus) (UniProt Q1DB03). The experiment in a line: SEC-MALS; Superdex 200 Increase 10/300 GL, room temperature (about 25 °C), 50 mM NaCl, 50 mM Tris pH 8.0, 0.4 ml/min; purified linked complexes loaded at approximately 5 mg/ml, 110 μl. On the technique in general: In gel filtration, larger molecules generally elute earlier.

For data set [4], the target named is T1, MglB with C-terminal Strep-tag (MglB-Strep) (Myxococcus xanthus), Q1DB03.
T1 chain: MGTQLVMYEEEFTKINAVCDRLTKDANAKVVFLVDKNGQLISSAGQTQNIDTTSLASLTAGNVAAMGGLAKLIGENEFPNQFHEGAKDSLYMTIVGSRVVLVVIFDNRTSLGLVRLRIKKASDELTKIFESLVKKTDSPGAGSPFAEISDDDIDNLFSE
Described as above. The following applies: remark: other sources report otherwise.

Data set [5] deals with the molecule itself. The data set can be described thus: SEC; purified MglB^WT, MglB^ΔN and MglB^N37,R98A (Fig. S1B).
The target in data set [6] is T2, MglA (mutual gliding protein A), unlinked (Myxococcus xanthus) (UniProt Q1DB04).
T2 sequence: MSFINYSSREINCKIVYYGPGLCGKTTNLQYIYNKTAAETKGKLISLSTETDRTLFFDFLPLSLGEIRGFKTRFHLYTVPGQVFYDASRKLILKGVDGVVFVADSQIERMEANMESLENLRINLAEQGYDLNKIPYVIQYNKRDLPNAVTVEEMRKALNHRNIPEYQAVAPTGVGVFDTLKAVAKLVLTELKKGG

Data set [7] concerns the target T3, MglB, unlinked wild type (Myxococcus xanthus), Q1DB03.
T3 chain: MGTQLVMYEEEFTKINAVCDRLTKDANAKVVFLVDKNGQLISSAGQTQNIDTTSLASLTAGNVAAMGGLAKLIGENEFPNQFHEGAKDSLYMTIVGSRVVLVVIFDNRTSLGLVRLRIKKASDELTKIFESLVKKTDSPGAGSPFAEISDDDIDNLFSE
The experiment in a line: SEC; purified MglB^WT, MglB^ΔN and MglB^N37,R98A (Fig. S1B). The following applies: remark: other sources report otherwise.

On to “MglB^ΔCt with C-terminal Strep-tag (MglB^ΔCt-Strep) (from UniProt Q1DB03 1-159) (domain or fragment)”, for which the GTPase activity kobs of the linked complex {AB^ΔCt} (NADH-coupled assay) in data set [1] is 0.1 min⁻¹. The GTPase activity kobs of the linked complex {AB1B2^ΔCt} (NADH-coupled assay) in data set [2] came out at 0.17 min⁻¹. This molecule came in with a stoichiometry N in data set [3] of 2.

B1: MglB with C-terminal Strep-tag (MglB-Strep) (natural protein)
chain: MGTQLVMYEEEFTKINAVCDRLTKDANAKVVFLVDKNGQLISSAGQTQNIDTTSLASLTAGNVAAMGGLAKLIGENEFPNQFHEGAKDSLYMTIVGSRVVLVVIFDNRTSLGLVRLRIKKASDELTKIFESLVKKTDSPGAGSPFAEISDDDIDNLFSE
B1 showed a GTPase activity kobs of the linked complex {AB1^ΔCtB2} (NADH-coupled assay) in data set [1] of 0.07 min⁻¹. The GTPase activity kobs of the linked complex {AB^WT} (NADH-coupled assay, GDP released per minute per μM enzyme) in data set [2] stood at 0.2 min⁻¹.

B2: MglB with C-terminal Strep-tag (MglB-Strep), Q1DB03 1-159 (natural protein)
chain: MGTQLVMYEEEFTKINAVCDRLTKDANAKVVFLVDKNGQLISSAGQTQNIDTTSLASLTAGNVAAMGGLAKLIGENEFPNQFHEGAKDSLYMTIVGSRVVLVVIFDNRTSLGLVRLRIKKASDELTKIFESLVKKTDSPGAGSPFAEISDDDIDNLFSE
In data set [4], B2 displayed a stoichiometry N of 2.

B3: MglB^N37,R98A (natural protein, Myxococcus xanthus)
chain: MGTQLVMYEEEFTKINAVCDRLTKDANAKVVFLVDKAGQLISSAGQTQNIDTTSLASLTAGNVAAMGGLAKLIGENEFPNQFHEGAKDSLYMTIVGSAVVLVVIFDNRTSLGLVRLRIKKASDELTKIFESLVKKTDSPGAGSPFAEISDDDIDNLFSE
notes: MglB, Myxococcus xanthus, Asn-37 and Arg-98 mutated to alanines; also called double mutant of Asn-37 and Arg-98 to alanines; source: E. coli BL21AI, purified (as MglB, then Superdex 75 and MonoQ)
In the case of B3, the binding result in data set [5] is “binds”.

B4: MglB^ΔCt, unlinked (domain or fragment)
chain: MGTQLVMYEEEFTKINAVCDRLTKDANAKVVFLVDKNGQLISSAGQTQNIDTTSLASLTAGNVAAMGGLAKLIGENEFPNQFHEGAKDSLYMTIVGSRVVLVVIFDNRTSLGLVRLRIKKASDELTKIFESLVKKTDSPGAGSPFAEISDDDIDNLFSE
As for B4, in data set [6], the GTPase activity kobs of unlinked AB^ΔCt (NADH-coupled assay) was determined as 0.08 min⁻¹.

B5: MglB, unlinked wild type, Q1DB03 1-159 (natural protein)
chain: MGTQLVMYEEEFTKINAVCDRLTKDANAKVVFLVDKNGQLISSAGQTQNIDTTSLASLTAGNVAAMGGLAKLIGENEFPNQFHEGAKDSLYMTIVGSRVVLVVIFDNRTSLGLVRLRIKKASDELTKIFESLVKKTDSPGAGSPFAEISDDDIDNLFSE
Turning to B5, the stoichiometry N in data set [7] is 2.

B6: MglB^ΔN (natural protein, Myxococcus xanthus)
chain: MYEEEFTKINAVCDRLTKDANAKVVFLVDKNGQLISSAGQTQNIDTTSLASLTAGNVAAMGGLAKLIGENEFPNQFHEGAKDSLYMTIVGSRVVLVVIFDNRTSLGLVRLRIKKASDELTKIFESLVKKTDSPGAGSPFAEISDDDIDNLFSE
notes: MglB, Myxococcus xanthus, with the N-terminal β-strand (residues 2 to 7) deleted; Dimer by SEC; also called MglB with residues 2 to 7 deleted; source: E. coli BL21AI, purified (as MglB, then Superdex 75 and MonoQ)
As for B6, the “stoichiometry N” value in data set [5] was found to be 2.

Broadly, the stoichiometry N is the number of molecules, sites or subunits per partner or assembly.
